Here are results for 15 molecules from patent US20220175942A1 (OXFORD UNIVERSITY INNOVATION, published 2022).

B9: CCL1_HUMAN (ligand)
chain: KSMQVPFSRCCFSFAEQEIPLRAILCYRNTSSICSNEGLIFKLKRGKEACALDTVGWVQRHRKMLRHCPSKRK
notes: Biotinylated (detected with streptavidin-Alexa647) in yeast display; AlexaFluor 647 labelled (Almac) in thermophoresis
B10: CCL11_HUMAN (ligand)
chain: not shown
notes: as for B9
B11: CCL18_HUMAN (ligand)
chain: AQVGTNKELCCLVYTSWQIPQKFIVDYSETSPQCPKPGVILLTKRGRQICADPNKKWVQKYISDLKLNA
notes: as for B9

In experiment [1] the target is T1, CXCL8_HUMAN (human, UniProt P10145 28-99).
T1 construct: Biotinylated (detected with streptavidin-Alexa647) in yeast display; AlexaFluor 647 labelled (Almac) in thermophoresis
T1 sequence: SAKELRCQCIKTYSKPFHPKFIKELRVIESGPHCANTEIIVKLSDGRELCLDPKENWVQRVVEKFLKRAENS
The experiment in a line: yeast surface display library FACS screen, labelled chemokine (col C: isolated in).

The target in experiment [2] is T2, CCL19_HUMAN (human, UniProt Q99731 22-98).
T2 construct: Biotinylated (detected with streptavidin-Alexa647) in yeast display; AlexaFluor 647 labelled (Almac) in thermophoresis
T2 sequence: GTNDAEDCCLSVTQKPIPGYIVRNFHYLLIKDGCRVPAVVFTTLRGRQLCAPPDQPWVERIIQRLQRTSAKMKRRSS
Described as above.

A further experiment concerns the target T3, CXCL10_HUMAN (human, UniProt P02778 22-98).
T3 construct: Biotinylated (detected with streptavidin-Alexa647) in yeast display; AlexaFluor 647 labelled (Almac) in thermophoresis
T3 sequence: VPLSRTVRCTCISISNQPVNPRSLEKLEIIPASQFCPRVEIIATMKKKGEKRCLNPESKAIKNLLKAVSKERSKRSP
The experiment is described as above.

The target in the experiment “CCL11_HUMAN” is B10. The description is as above.
Experiment [3] addresses T4, CCL17_HUMAN (human, UniProt Q92583 24-94).
T4 construct: Biotinylated (detected with streptavidin-Alexa647) in yeast display; AlexaFluor 647 labelled (Almac) in thermophoresis
T4 sequence: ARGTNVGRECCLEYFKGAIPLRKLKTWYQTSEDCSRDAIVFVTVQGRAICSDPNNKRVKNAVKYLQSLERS
The experiment is described as above.

Another experiment has as its target T5, CCL3_HUMAN (human, UniProt P10147 24-92).
T5 construct: Biotinylated (detected with streptavidin-Alexa647) in yeast display; AlexaFluor 647 labelled (Almac) in thermophoresis
T5 sequence: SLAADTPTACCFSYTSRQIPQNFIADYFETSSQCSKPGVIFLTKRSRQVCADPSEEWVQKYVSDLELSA
The experiment in a line: yeast surface display FACS re-test, >3 fold MFI over control (col D).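 Further: yeast displaying putative tick Evasins stained with biotinylated human chemokine plus streptavidin-Alexa647, flow cytometry, positive when MFI exceeds 3-fold the empty-vector or no-chemokine background.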

For the experiment “CCL18_HUMAN”, the target named is B11. The experiment is described as above.
For a further experiment, the target named is T6, CCL8_HUMAN (human, UniProt P80075 24-99).
T6 construct: Biotinylated (detected with streptavidin-Alexa647) in yeast display; AlexaFluor 647 labelled (Almac) in thermophoresis
T6 sequence: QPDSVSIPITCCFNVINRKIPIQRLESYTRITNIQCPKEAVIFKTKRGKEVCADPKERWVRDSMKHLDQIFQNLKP
Described as above.

For experiment [4], the target named is T1, CXCL8_HUMAN. The description is as above.
A further experiment addresses T7, CCL20_HUMAN (human, UniProt P78556 27-96).
T7 construct: Biotinylated (detected with streptavidin-Alexa647) in yeast display; AlexaFluor 647 labelled (Almac) in thermophoresis
The description is as above.

The target in experiment [5] is T8, CCL5_HUMAN (human, UniProt P13501 24-91).
T8 construct: Biotinylated (detected with streptavidin-Alexa647) in yeast display; AlexaFluor 647 labelled (Almac) in thermophoresis
T8 sequence: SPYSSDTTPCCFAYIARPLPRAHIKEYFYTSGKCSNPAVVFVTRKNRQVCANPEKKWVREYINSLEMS
Described as above.

Experiment [6] addresses T9, CCL25_HUMAN (human, UniProt O15444 24-150).
T9 construct: Biotinylated (detected with streptavidin-Alexa647) in yeast display; AlexaFluor 647 labelled (Almac) in thermophoresis
T9 sequence: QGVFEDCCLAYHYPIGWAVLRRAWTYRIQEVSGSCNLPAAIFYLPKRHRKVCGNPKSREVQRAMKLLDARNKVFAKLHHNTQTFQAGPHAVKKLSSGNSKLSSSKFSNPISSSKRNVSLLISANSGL
The experiment in a line: yeast surface display library FACS screen, labelled chemokine (col C: isolated in).

The experiment “CCL1_HUMAN” has as its target B9. The experiment is described as above.
The target of experiment [7] is T2, CCL19_HUMAN. Nature of the experiment: yeast surface display FACS re-test, >3 fold MFI over control (col D).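 Further: yeast displaying putative tick Evasins stained with biotinylated human chemokine plus streptavidin-Alexa647, flow cytometry, positive when MFI exceeds 3-fold the empty-vector or no-chemokine background.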
In experiment [8] the target is T4, CCL17_HUMAN. The experiment is described as above.
Experiment [9] concerns the target T8, CCL5_HUMAN. The experiment in a line: yeast surface display library FACS screen, labelled chemokine (col C: isolated in).
The next experiment addresses T10, P546_AMBCA (Amblyomma cajennense, UniProt A0A023FBW7 22-118).
T10 construct: Tick evasin; also called Evasin
T10 sequence: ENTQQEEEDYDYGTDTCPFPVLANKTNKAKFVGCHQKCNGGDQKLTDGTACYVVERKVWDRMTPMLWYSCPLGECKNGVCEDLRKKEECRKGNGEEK
The experiment in a line: microscale thermophoresis, AlexaFluor 647 labelled chemokine. (Microscale thermophoresis detects binding through changes in fluorescence in a small temperature gradient.)

A further experiment has as its target T11, P467_RHIPU (Rhipicephalus pulchellus, UniProt L7M8Z8 22-127).
T11 construct: Tick evasin; also called Evasin
T11 sequence: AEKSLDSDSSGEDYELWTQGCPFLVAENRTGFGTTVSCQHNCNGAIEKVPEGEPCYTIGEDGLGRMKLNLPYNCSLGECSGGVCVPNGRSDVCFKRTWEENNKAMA
Nature of the experiment: yeast surface display library FACS screen, labelled chemokine (col C: isolated in).

For another experiment, the target named is T12, P1243_AMBAM (Amblyomma americanum, UniProt A0A0C9S461 26-123).
T12 construct: Tick evasin; also called Evasin
T12 sequence: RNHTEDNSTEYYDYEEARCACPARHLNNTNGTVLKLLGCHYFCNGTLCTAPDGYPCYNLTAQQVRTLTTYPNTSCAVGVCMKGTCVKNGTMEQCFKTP
The experiment is described as above.

The next experiment concerns the target T13, P1182_AMBMA (Amblyomma maculatum, UniProt G3MJ83 27-115).
T13 construct: Tick evasin; also called Evasin
T13 sequence: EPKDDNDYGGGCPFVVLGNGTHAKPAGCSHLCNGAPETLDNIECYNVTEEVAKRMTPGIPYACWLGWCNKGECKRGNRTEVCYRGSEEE
The experiment is described as above.

In experiment [10] the target is T9, CCL25_HUMAN. Nature of the experiment: yeast surface display FACS re-test, >3 fold MFI over control (col D).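 Further: yeast displaying putative tick Evasins stained with biotinylated human chemokine plus streptavidin-Alexa647, flow cytometry, positive when MFI exceeds 3-fold the empty-vector or no-chemokine background.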

Chain of CCL11_HUMAN (P51671 24-97 limits assumed): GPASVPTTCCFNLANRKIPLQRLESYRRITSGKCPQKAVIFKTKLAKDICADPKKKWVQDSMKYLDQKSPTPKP
T7 sequence (P78556 27-96 limits assumed): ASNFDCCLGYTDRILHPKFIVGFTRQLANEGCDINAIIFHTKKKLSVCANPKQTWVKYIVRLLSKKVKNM

B1: P1146_IXORI (other)
chain: GPDTKGDEESDENELFTVEYCGTNCTQLENGSWTPCSGNNGNCRCFHESDKTVGLCLSTEYTDFSEYPDPNSSEIIAAAPLPRERLIQ
notes: Tick evasin; also called Evasin
Regarding B1, the binding result with CXCL8_HUMAN [1] is listed as “binds”.

B2: P1219_IXORI (other)
chain: ASLAKETEDTTLPARALVDSPDSDNCSSPQLPYFDELTYMPLGFLAVNCTKTCPVGKNGTVVNGNKCIVTWSILDVSTITVLVGSCKNGYCISDGSSECRNITLAGEDSQEEEEEAEEDEEEDDGDEEEDEEEDEEENDDD
notes: as for B1
For B2, the binding result in the experiment with CCL19_HUMAN [2] and in the experiment with CXCL10_HUMAN was “binds” throughout.

B3: P1030_AMBPA (other)
chain: GPPSIPGNESIPGCGDAGTTTAPEDNPKHYGTLTDKKGCTLPIIGTWMTAVDHQHLQGTRGERRGPTGKVNLPASCRKNCHGRQEILRDGIPCRKVVGNPKGSKKHLKSGCLRGKCLAGQCVNDGRRISCYVPRNITDTEPTPGLLAE
notes: Tick evasin
B3: the binding result with CCL11_HUMAN, with CCL17_HUMAN [3], with CCL3_HUMAN, in the experiment with CCL18_HUMAN, with CCL8_HUMAN and in the experiment with CXCL8_HUMAN [4] was “binds” in each case. Besides, the binding result with CCL20_HUMAN and in the experiment with CCL5_HUMAN [5] was “binds” in each case.

B4: P1220_IXORI (other)
chain: GSTPSAMKTEDILKVLGSTSSLENHTDSSHCRYQELLDITKNIENAGFLAINCQRSCPNGKQTMVEGYGCIFKIKHATKRGKVKVKEGSCRKGACVRGSTRPPWRLLVLLGESKEEEFL
notes: as for B1
For B4, in the experiment with CCL25_HUMAN [6], the binding result is recorded as “binds”.

B5: P698_RHISA (other)
chain: NEDDSSDYYDASPMNCSSMSVNSTMGWLSMNCTMSCNGTTFPLSNSTHCFHSYTNLTVQSRMETMTYNCSVGTCSNGTCVENGTTTTCW
notes: as for B1
As to B5, the binding result in the experiment with CCL8_HUMAN is on record as “binds”.

B6: P1283_IXORI (other)
chain: KEPEDTTLPPGALVDSPDSDNCSSPHLPYFDETTNMWMGFLAVNCTKKCPVGKHVTVVDGNKCIGTWSFLDELTITVLVGSCKDGFCETDGSSECRNITLAEEDSQEEEGAAAEEEDEEDEEDEEEEEAEEEREDDHDDA
notes: as for B1
In the case of B6, the binding result in the experiment with CXCL10_HUMAN is recorded as “binds”.

B7: P1005_AMBMA (other)
chain: EKDTPKNIPGCGDTGTTAAPPADNPKHFAVYTDKHGCTIKVIGTWMTKEDHSRLPVSLRRVRASSGRVMLPASCQKICNDTVKNFPEGTPCRLVTGDPIKGKNHIKDGCIRGYCSSGVCVSDKRNISCYVPPN
notes: as for B1
Turning to B7, the binding result with CCL1_HUMAN, with CCL25_HUMAN [6], with CCL11_HUMAN, in the experiment with CCL3_HUMAN, with CCL19_HUMAN [7] and in the experiment with CXCL8_HUMAN [4] was “binds” throughout. The binding result in the experiment with CCL5_HUMAN [5] and in the experiment with CCL17_HUMAN [8] was “binds” throughout.

B8: P1063_AMBTR (other)
chain: QSEVGKNVPGCGDTETLEAPPQEKPPYYEYKDEEGCTQKVLESWFQAGERSTGRGQKKRGHGRRPSRVLRTVDCRKNCTVGITALPDGHLCLVPRGDPFTRGGAIKYGCYLGDCASGHCQHRYETVSCRLPAPDTTAKPYYVTPEK
notes: as for B1
As for B8, in the experiment with CCL5_HUMAN [9], the binding result is “binds”.

With B9, in the experiment with P546_AMBCA, the Kd was found to be 149 nM. For the same molecule, the binding result with P467_RHIPU is “binds”.

B10 gave a Kd with P546_AMBCA of 500 nM. That is a sub-micromolar value.

B11 displayed a Kd with P546_AMBCA of 86 nM. For the same molecule, the binding result with P1243_AMBAM and with P1182_AMBMA was “binds” in each case.

B12: CXCL11_HUMAN (ligand)
chain: FPMFKRGRCLCIGPGVKAVKVADIEKASIMYPSNNCDKIEVIITLKENKGQRCLNPKSKQARLIIKKVERKNF
notes: as for B9
In the case of B12, the binding result in the experiment with P546_AMBCA was “no binding”.

B13: CCL22_HUMAN (ligand)
chain: GPYGANMEDSVCCRDYVRYRLPLRVVKHFYWTSDSCPRPGVVLLTFRDKEICADPRVPWVKMILNKLSQ
notes: as for B9
Consider B13, for which the Kd in the experiment with P546_AMBCA amounted to 175 nM.

B14: P943_IXORI (other)
chain: RSKQPTASQSSKNSIKAEFCDTNCTQGTNGAWSGCSEGCFCVHVGNNTKGRCMKLSSDYDYTTQ
notes: as for B1
B14: the binding result with CCL5_HUMAN [9] was “binds”.

B15: P1011_AMBTR (other)
chain: EKDTPKNIPGCEDAGTTAAPPADNPKHYAVYTDKNGCTFKVIGTWMTKEDHRRLPVSLRRVRASSGRVKLPASCQKICKHSVKKFPEGTPCRLVTRDPIKGKNHIKNGCIRGYCSSGVCVSDNRSISCYVLPNNTELTSPSGSFAE
notes: as for B1
For the molecule B15, the binding result with CCL11_HUMAN, in the experiment with CCL18_HUMAN, in the experiment with CCL25_HUMAN [10], with CCL5_HUMAN [5] and with CCL17_HUMAN [8] was “binds” each time.

Usually Kd stands for the equilibrium constant for the complex coming apart.
